This sample holds only a part of the variants without activity.
B1: TPR 5TU (parent)
chain: GGAUCUUCUCGAUCUAACAAAAAAGACAAAUCUGCCACAAAGCUUGAGAGCAUCUUCGGAUGCAGAGGCGGCAGCCUUCGGUGGCGCGAUAGCGCCAACGUUCUCAACUAUGACACGCAAAACGCGUGCUCCGUUGAAUGGAGUUUAUCAUG

Variants of: B1
Assay: polymerase ribozyme fitness, log enrichment relative to wild type (log ratio); higher = more active; in vitro selection for triplet polymerase activity
In short: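 Each subunit of a heterodimeric triplet polymerase ribozyme was mutagenized into a library by PCR, transcribed, and subjected to one round of in vitro selection, run in triplicate. Libraries were annealed with a biotinylated primer, the partner subunit and triplets, incubated frozen at −7 °C, and extended constructs were gel-excised, captured on streptavidin beads and recovered by RT-PCR. Input and output libraries were sequenced on Illumina, keeping genotypes with ≥10 input reads and ≥1 read per output. Fitness is log base 2 of genotype enrichment divided by wild-type enrichment, from inverse-variance-weighted replicate averages.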

Variant | polymerase ribozyme fitness (log ratio)
GGAUCUUCUCGAUCUAACAAAAAAGACAAAUCUGCCUCAAAGCUUGAGAGCAUCUUCGGAUGCAGAGGCGGCAGCCUUCGGUGGAGCGAUAGUGCCAACGUUCUCAACUAUGACACGCAAAACGCGUGCUCCGUUGAAUGCAGUUUCUCAUG [A37U C85A C93U G141C A147C] | ≤ -4.2
GGAUCUUCUCGAUCUAACAAAAAAGACAAAUCUGCCUCAAAGCUUGAGAGCAUCUUCGCAUGCAGAGGCGGCAGCCUUCGGUGGCGCGAUAGCGCCAACGUUCUCAACUAUGACACGCAAAACGCGUGCUCCGUUGAAUGGAGUUUAUGAUG [A37U G59C C149G] | ≤ -4.2
GGAUCUUCUCGAUCUAACAAAAAAGACAAAUCUGCCUCAAAACUUGAGAGCAUCUUCGGAUGCAGAGGCGGCAGCCUUCGGUGGAGCGAUAGCGCCAACGUUCUCAACUAUGACACGCAAAACGCGUGCUCCGUUGAGUGGAGUUUAUCAUG [A37U G42A C85A A138G] | ≤ -4.2
GGAUCUUCUCGAUCUAACAAAAAAGACAAAUCUGCCUCAAAGCUUGAGAGCAUCUUCGGAUGCUGAGGCGGCAGCCUUCGGUGGCGCGAUAGCGCCAACGUUCUCAACUAUGACACGCAAAACGCGUGCUCCGUUGAAUGGAGUUUAUCAUG [A37U A64U] | ≤ -4.2
GGAUCUUCUCGAUCUAACAAAAAAGACAAAUCUGCCGCAAAGCUUGAGAGCAUCUUCGGAUGCAGAGGCGGCAGCCAUCGGUGGCGAGAUAGCGCCAAUGUUCUCAACUAUGACACGCAAAACGCGUGCUCCGUUGAAUCGAGUUUUUCAUG [A37G U77A C87A C99U G140C A147U] | ≤ -4.2
GGAUCUUCUCGAUCUAACAAAAAAGACAAAUCUGCCUCAAAGCUUGAGAGCAUCUUCGGAUGCAGAGGCGGCAGCCUUCGGUGGCGUGAUAGCGCCAACGUUCUCAACUAUGACACGCAAAACGCGUGCUCCGUUGAAUGGAGUUUAUCAUG [A37U C87U] | -0.99
GGAUCUUCUCGAUCUAACAAAAAAGACAAAUCUGCCUCAAAGCUUGAGAGCGUCUUCGGAUGCAGAGGCGGCAGCCUUCGGUAACGCGAUAGCGCCAACGUUCUCAACUAUGACUCGCAAAACGCGUGCUCCGUUGAAUGGAGUUUAUCAUG [A37U A52G G83A G84A A115U] | ≤ -4.2
GGAUCUUCUCGAUCUAACAAAAAAGACAAAUCUGCCUCAAAGCUUGAGAGCAUCUUCGGAUGCAGAGGCGGCAGCCUUCGGUGGCGCGAUAGCGCCAGCGUUCUCAACUAUGACACGCAAAACGCGUGCUCCGUUGAAUGGAGUUUAUCAUG [A37U A98G] | -1.34
GGAUCUUCUCGAUCUAACAAAAAAGACAAAUCUGCCUCAAAGCUUGAGAGCGUCUUCGGAUGCAGAGGCGGCAGCUUUCGGUGGCGCGAUAGCGACAACGUUCUCAACUAUGACACGCAAAACGCGUGCUCCGUUGAAUGGAGUUUAUCAUG [A37U A52G C76U C95A] | -2.41
GGAUCUUCUCGAUCUAACAAAAAAGACAAAUCUGCCUCAAAGCUUGAGAGCAUCUUCGGAUGCAGAGGCGGCAGCCUUCGGUGGCGCGAUAGCGCUAACGUUCUCAACUAUGACACGCAAAACGCUUGCUCCGUUGAAUGGAGUUUAUCAUG [A37U C96U G126U] | -2.91
GGAUCUUCUCGAUCUAACAAAAAAGACAAAUCUGCCUGAAAGCUUGAGAGCAUCUUCGGAUGCAGAGGCGGCAGCCUUCGGUGGCGCGAUAGCGCCCACGUUCUCAACUAUGACACGCAAAACGCGUGCUCCGUUGAAUGGAGUUUAUCAUG [A37U C38G A97C] | -1.69
GGAUCUUCUCGAUCUAACAAAAAAGACAAAUCUGCCUCAAAGCUUGAGAGUAUCUUCGGAUGCAGAGGCGGCAGCCUUCGGUGGCGCGAUAUCGCCAACGUUCUCAACUAUGACACGCAAAACGCGUGCUCCGUUGAAUGGAGUUUAUCAUG [A37U C51U G92U] | -2.25
GGAUCUUCUCGAUCUAACAAAAAAGACAAAUCUGCCGCAAAGCUUGAGAGCAUCUUCGGAAGCAGAGGCGGCAGCCUUCGGUGGCGCGAUAGCGCCAACGUUCUCAACUAUGACACGCAAAACGCGUGCUCCGUUGAAUGCAGUUUACCAUG [A37G U61A G141C U148C] | ≤ -4.2
GGAUCUUCUCGAUCUAACAAAAAAGACAAAUCUGCCUCAAAGCUUGAGAGGAUCUUCGGAUGCAGAGGCGGCAGCCUUCGGUGGCGCAAUAGCGCCAACGUUCUCAACUAUGACACGCAAAACGCGUGCUCCGUUGAAUGGAGUUUAUCAUG [A37U C51G G88A] | ≤ -4.2
GGAUCUUCUCGAUCUAACAAAAAAGACAAAUCUGCCUCAAAGCUUGAGAGCAUUUUCGGAUGCAGAGGCGGCAGCCUUCGGUGGCGCGAUAGUGCCAACGUUCUCAACUAUGACACGCAAAACGCGUGCUCCGUUGAAUGGAGUUUAUCAUG [A37U C54U C93U] | -2.44
GGAUCUUCUCGAUCUAACAAAAAAGACAAAUCUGCCUCAAAGCUUGAGAGCAUCUUCUGAUGCAGAGGCGGCAGCCUUCGGUGGCGCGAUAGCGCUAACGUUCUCAACUAUGACACGGAAAACGCGUGCUCCGUUGAAUGGAGUUCAUCAUG [A37U G58U C96U C118G U146C] | -3.08
GGAUCUUCUCGAUCUAACAAAAAAGACAAAUCUGCCUCAAAGCUUGAGAGCAUCUUCGGAUGCAGAGGCGGCAGCCUUCGGUGGCGCGAUAGCGCCAACGUUCUCAACUAUGACACGCAAGACGCGUGCUCCGUUGAAUGGAGUUUAUCAUU [A37U A121G G152U] | -3.84
GGAUCUUCUCGAUCUAACAAAAAAGACAAAUCUGCCUCAAAGCUUGAGAGCAUCUUCGGAUGCAGGGGCGGCAGCCUUCGGUGGCGCGAUAGCGCCAACGUUCUCAACUAUGACACGCAAAACGCGUGCUCCGUUGAAUGGAGUUUAUUAUC [A37U A66G C149U G152C] | ≤ -4.2
GGAUCUUCUCGAUCUAACAAAAAAGACAAAUCUGCCGCAAAGCUUGAGAGCAUCUUCGGACGCAGAGGCGGCAGCCUUCGGUGGCGCGAUAGCUCCAACGUUCUCAACUAUGACACGCAAAACGCGUGCUCCGUUGAAUGGAGUCUAUCAUG [A37G U61C G94U U145C] | ≤ -4.2

Reference: the RNAGym collection of RNA variant scans (doi:10.1073/pnas.2313332121)
